In US20070037736A1, “Therapeutic composition comprising the KAL protein and use of the KAL protein for the treatment of retinal, renal, neuronal and neural injury” (INSTITUT PASTEUR, priority 1997, published 2007):

Legend:
[1] = test system: CHO-K1 cells; experiment: Adhesion and inhibition assay, colorimetric; format: cell-based, Chinese Hamster
Description: (§1) Adhesion assays were performed as described in (à compléter) with some modifications. Coating with the various molecules, at the indicated concentrations in 0.5 ml PBS, was performed in plastic 24-well multidishes (Nunclon™) at 37° C. (1 h or overnight).The cells were then washed three times with PBS, coating blocked with 1% heat-inactivated BSA (à compléter) for at least 1 h at 37° C., followed by three PBS washes, before addition of the cells (10^6 cells per ml in serum-free medium containing 0.1% heat-inactivated BSA). In standard experiments, purified KAL was applied at 3 μg/ml. Other substrates were used as control, fibronectin ([…]) and poly-L-lysine (100 μg/ml).
(§2) Cells were incubated for 30 min to 1 h on coated wells. Medium was then aspirated and unbound cells removed by one wash with PBS. The adherent cells were fixed with […] paraformaldehyde (PFA) in PBS and stained with 0.1% crystal violet. Quantification of the attached cells was performed using a colorimetric method (à compléter). Data are expressed as the percentage of adherent cells on each tested substrate with reference to poly-L-lysine. Assays in triplicate were repeated in three independent experiments.
Heparin, heparan sulfate or chondroitin sulfate (up to 1 mg/ml in PBS) was added in KAL-coated-BSA-saturated wells, and allowed to interact for 2 h at 37° C. […]

[2] = test system: CHO-677 cells; experiment: Adhesion assay with HS-deficient mutant cells; format: cell-based, Chinese Hamster
From the text: The parental CHO cell line and the human KAL-transfected CHO clones (1-1 and 2-3) were cultivated in DMEM medium supplemented with 8% fetal calf serum (PAA, Jacques Boy, France). • Cells from the olfactory neuronal line 13.S.1.24 also named “line 24” (kindly provided by Dr. Astic, Lyon, France) were cultivated in DMEM supplemented with 10% calf serum. Porcine kidney epithelial cells (LLCPK) ATCC NO CRL1392 • Mouse GnRH neurons (GT1, subclone 1) • Wild-type CHO-K1, mutant CHO-K1-677 (Lidholt K. et al., 1992) and CHO-K1-606 (Bame et al., 1994) cell lines were provided to us by Dr. Esko, the mutant CHO-K1-745 (Esko et al., 1987) cell line was obtained from ATCC. The CHO-K1-677 cells display undetectable levels of heparan-sulfate (HS), but synthesize chondroitin sulfate (CS) at a level 3 times higher than wild-type CHO-K1 cells. The CHO-K1-606 cells express HS and CS at levels similar to those observed in wild-type, but HS is 2 to 3 times less sulfated than in wild-type cells. The CHO-K1-745 cells, deficient in xylosyltransferase, synthesize neither HS nor CS (Esko et al., 1987). Wild-type and mutant CHO-K1cells were maintained in Ham F12 medium supplemented with 10% fetal calf serum.
Adhesion assays were performed as described in (à compléter) with some modifications. Coating with the various molecules, at the indicated concentrations in 0.5 ml PBS, was performed in plastic 24-well multidishes (Nunclon™) at 37° C. (1 h or overnight).The cells were then washed three times with PBS, coating blocked with 1% heat-inactivated BSA (à compléter) for at least 1 h at 37° C., followed by three PBS washes, before addition of the cells (10^6 cells per ml in serum-free medium containing 0.1% heat-inactivated BSA). In standard experiments, purified KAL was applied at 3 μg/ml. […]
(§3) Cells were incubated for 30 min to 1 h on coated wells. […] Quantification of the attached cells was performed using a colorimetric method (à compléter). Data are expressed as the percentage of adherent cells on each tested substrate with reference to poly-L-lysine. […]

[3] = test system: olfactory neurons (line 24); experiment: Spreading and neurite growth on coated substrates; format: cell-based, rat; settings: for mean neurite length per olfactory neuron: mean ± SEM
Description: FIG. 28: Mean neurite length on the different substrates after one hour, two hours and eight hours in vitro. Mean value±SEM. More than 100 neurons were analyzed in each experimental condition.
Cells, in serum-free medium containing 0.1% heat inactivated BSA were seeded on KAL- or laminin-coated wells, and maintained for 20 min to 22 h at 37° C. Adherent cells were fixed, stained with toluidine blue, and photographied with an inverted microscope.

[4] = test system: PC12 cells; experiment: Adhesion and inhibition assay, colorimetric; format: cell-based, rat; settings: HS or CS pretreatment of KAL-coated wells; data not shown
Description: as §1, §2
Cells were incubated for 5 min at room temperature in HBSS containing 5 mM EDTA, washed once with HBSS and preincubated for 1 h at 4° C. in HBSS containing 0.1% BSA in the absence or in the presence of Ca^++ and/or Mg^++ prior plating.
Heparin, heparan sulfate or chondroitin sulfate (up to 1 mg/ml in PBS) was added in KAL-coated-BSA-saturated wells, and allowed to interact for 2 h at 37° C. After three washings with PBS, CHO-K1or PC12 cells were plated, and incubated as usual.
A 32 aminoacid peptide (32R1-FIG. 24) was synthesized (Syntiem laboratory). Control peptides were C17 (NH2CSLVPTKKKRRKTTDGF-COON) (SEQ ID NO:7) derived from the second fibronectin type III repeat of human KAL and C 16V (NHzCGSYANNNRYGRDPPTSV-000H), (SEQ ID NO:8) derived from the EYA1 protein (a completer). The peptides, at various concentrations (10 to 30 μg/ml), were directly adsorbed on polystyrene microtiter wells (Immulon 4, Nunc). […]

[5] = test system: PC12 cells; experiment: Adhesion assay on coated wells, cell counter; includes antibody, heparin and R1-FNIII inhibition; format: cell-based, rat
Description: (§4) 24-well microtiter plates were coated at 37 °C overnight with 20 μg/ml of laminin, 5μg/ml of KAL in PBS, pH=7.4. The plates were washed twice with PBS and non specific sites were blocked by the addition of 1% BSA in PBS for 1 hour at 37° C. Wells were washed twice with PBS. Cerebellar neurons or PC12 cells were resuspended in DMEM to a final concentration of 10^6 cells/ml. 500 μl of this suspension was added to each coated well. Cells were also added to control wells that had been coated with BSA alone. Plates were incubated at 37° C. for 90 min in a 5% CO2 humidified atmosphere. The wells were washed gently twice with 0.5 ml PBS. To remove adherent cells from the wells, 0.5 ml of 0.05% trypsin-EDTA were added to each well. After 10 min at 37 °C, the 0.5 ml of trypsin-EDTA containing the detached cells were removed and the number of cells was determined by using a cell counter (Coutler, ZM equipped with a Coultronic 256 channelizer).
(§5) Each cell adhesion assay was carried out in triplicate. The ration of adherent cells with respect to the total number of cell ×100 was determined as the % of cell adhesion.
For inhibition of cell adhesion, 5 ×10^5 PC12 cells were deposited on areas previously coated with KAL and with antiserum directed against the human KAL protein at different concentrations and treated as described for adhesion assay. […]

[6] = test system: P5 cerebellar granule cells; experiment: Adhesion assay, colorimetric, relative to poly-L-lysine; format: cell-based, mouse; settings: 1 hour
Description: as §1, §2

[7] = test system: olfactory neurons (line 24); experiment: Adhesion and peptide/serum inhibition assay, colorimetric; format: cell-based, rat; settings: substrate coated to microtiter wells
Description: as §1, §2
A 32 aminoacid peptide (32R1-FIG. 24) was synthesized (Syntiem laboratory). Control peptides were C17 (NH2CSLVPTKKKRRKTTDGF-COON) (SEQ ID NO:7) derived from the second fibronectin type III repeat of human KAL and C 16V (NHzCGSYANNNRYGRDPPTSV-000H), (SEQ ID NO:8) derived from the EYA1 protein (a completer). The peptides, at various concentrations (10 to 30 μg/ml), were directly adsorbed on polystyrene microtiter wells (Immulon 4, Nunc). Adhesion assays were performed as described above.
In peptide inhibition assays, cells were preincubated with the peptides at different concentrations (10 to 100 μg/ml) for 1 h at 4° C., then plated to KAL-coated wells, and incubated for a further 30 min period of time.

[8] = test system: cerebellar granule cells; experiment: Adhesion assay on coated wells, adherent cells counted with a cell counter (% of total cells); format: cell-based, mouse; settings: coated dishes, 90 minute incubation
Description: Cerebellar cell cultures. Dissociated cell cultures were obtained from Swiss mouse cerebella on postnatal day 5. At this age, granule cells account for up to 90% of the total cell population, glial cells included. Cells were dissociated by combined trituration and trypsinisation, and grown in chemically defined medium DMEM/Ham's F12 (3 vol/1 vol) containing 0.2 mM glutamine, 5 μg/ml insulin, 100 μg/ml tranferrin, 20 nM progesterone, […] purrescine, 30 nM selenium 100 U/ml penicillin and 0.1 mg/ml streptomycin.
as §4, with “Cells were also added to control wells that had been coated with BSA alone. Plates were incubated at 37° C. for 90 min in a 5% CO2 humidified atmosphere. The wells were washed gently twice with 0.5 ml PBS. To remove adherent cells from the wells, 0.5 ml of 0.05% trypsin-EDTA were added to each well.” left out
as §5

[9] = test system: CHO-606 cells; experiment: Adhesion assay with mutant cells expressing undersulfated HS; format: cell-based, Chinese Hamster; settings: KAL substrate, versus wild-type CHO-K1
From the text: (§6) The parental CHO cell line and the human KAL-transfected CHO clones (1-1 and 2-3) were cultivated in DMEM medium supplemented with 8% fetal calf serum (PAA, Jacques Boy, France). • Cells from the olfactory neuronal line 13.S.1.24 also named “line 24” (kindly provided by Dr. Astic, Lyon, France) were cultivated in DMEM supplemented with 10% calf serum. Porcine kidney epithelial cells (LLCPK) ATCC NO CRL1392 • Mouse GnRH neurons (GT1, subclone 1) • Wild-type CHO-K1, mutant CHO-K1-677 (Lidholt K. et al., 1992) and CHO-K1-606 (Bame et al., 1994) cell lines were provided to us by Dr. Esko, the mutant CHO-K1-745 (Esko et al., 1987) cell line was obtained from ATCC. The CHO-K1-677 cells display undetectable levels of heparan-sulfate (HS), but synthesize chondroitin sulfate (CS) at a level 3 times higher than wild-type CHO-K1 cells. The CHO-K1-606 cells express HS and CS at levels similar to those observed in wild-type, but HS is 2 to 3 times less sulfated than in wild-type cells. The CHO-K1-745 cells, deficient in xylosyltransferase, synthesize neither HS nor CS (Esko et al., 1987). […]
as §3

[10] = test system: CHO-745 cells; experiment: Adhesion assay with HS- and CS-deficient mutant cells; format: cell-based, Chinese Hamster; settings: KAL substrate
From the text: as §6, §3

[11] = test system: cerebellar granule neurons (aggregates); experiment: Survival and neurite outgrowth of granule cell aggregates on coated substrates; format: cell-based, mouse; settings: 48 hours culture
Description: Reaggregate cultures of cerebellar neurons from mice on postnatal day-5 were prepared according to Gao et al. (1995). After dissociation, cells were further purified by preplating on a poly-L-Lysine treated (25 μg/ml) substrate for 30 min and plated in uncoated 96-well dishes (5 10^5 cells/well) in BME plus 10% horse serum, 5% fetal calf serum, 9 mg/ml glucose, 0.3 mg/ml glutamine, 50 U/ml penicillin and 0.1 mg/ml streptomycin. Aggregates (100-200 cells) were harvested after 24 h to be used in coculture experiments.
prepared as described in the Materials and Methods section. Cerebellar granule neurons were seeded on surfaces that had been coated with KAL protein. Polylysine and bovine serum albumin (BSA) were used as positive and negative controls respectively.

chondroitinase ABC
decrease of adhesion of CHO-K1 cells on KAL after enzyme treatment ([1]; cells treated prior plating): about 50%
effect of enzyme treatment of CHO-677 cells on adhesion on fibronectin substrate ([2]; data not shown): did not affect adhesion
effect of enzyme treatment of CHO-677 cells on adhesion to KAL ([2]; increasing concentrations, prior plating): virtually complete inhibition

fibronectin [reference compound]
mean neurite length per olfactory neuron ([3]; eight hours after plating): 63 (±2,5) μm
mean neurite length per olfactory neuron ([3]; one hour on substrate): 46 (±4) μm

heparin
inhibition of PC12 cell adhesion on KAL [4]: 50%
heparin concentration from which adhesion of PC12 cells to KAL protein was inhibited ([5]; heparin present in KAL-coated wells): ≥ 0.03 mg/mL
inhibition of CHO-K1 cell adhesion on KAL ([1]; KAL-coated wells preincubated with 100 μg/ml): approximately 50%

laminin [reference compound]
percentage of cell adhesion relative to PLL substrate (set as 100%) [6]: 50%

B1: KAL protein: recombinant human KAL gene product (680 aa, SwissProt P23352) purified from transfected CHO cells CHKAL2-3/d11 (protein)
chain: AGPGAAAARRLDESLSAGSVQRAPCASRCLSLQITRISAFFQHFQNNGSLVWCQNHKQCSKCLEPCKESGDLRKHQCQSFCEPLFPKKSYECLTSCEFLKYILLVKQGDCPAPEKASGFAAACVESCEVDNECSGVKKCCSNGCGHTCQVPKTLYKGVPLKPRKELRFTELQSGQLEVKWSSKFNISIEPVIYVVQRRWNYGIHPSEDDATHWQTVAQTTDERVQLTDIRPSRWYQFRVAAVNVHGTRGFTAPSKHFRSSKDPSAPPAPANLRLANSTVNSDGSVTVTIVWDLPEEPDIPVHHYKVFWSWMVSSKSLVPTKKKRRKTTDGFQNSVILEKLQPDCDYVVELQAITYWGQTRLKSAKVSLHFTSTHATNNKEQLVKTRKGGIQTQLPFQRRRPTRPLEVGAPFYQDGQLQVKVYWKKTEDPTVNRYHVRWFPEACAHNRTTGSEASSGMTHENYIILQDLSFSCKYKVTVQPIRPKSHSKAEAVFFTTPPCSALKGKSHKPIGCLGEAGHVLSKVLAKPENLSASFIVQDVNITGHFSWKMAKANLYQPMTGFQVTWAEVTTESRQNSLPNSIISQSQILPSDHYVLTVPNLRPSTLYRLEVQVLTPGGEGPATIKTFRTPELPPSSAHRHLKHRHPHHYKPSPERY
percentage of olfactory neurons (line 24) adherent on substrate [7]: 70%
stimulation of neurite elongation by comparison with fibronectin and peptide 32R1 ([3]; eight hours after plating): 30%
mean neurite length per olfactory neuron ([3]; eight hours after plating): 81 (±5) μm
mean neurite length per olfactory neuron ([3]; one hour on substrate): 66 (±2,5) μm
percentage of adherent cells relative to the total number of cells deposited [8]: 80%
adhesion of CHO-606 cells to the substrate [9]: comparable to that found in wild-type
adhesion of CHO-745 cells on the substrate [10]: No adhesion
percentage of cell adhesion relative to PLL substrate (set as 100%) [6]: 80%
survival and neurite outgrowth of granule cell aggregates on coated surface [11]: large halo of neuritic processes
concentration of KAL protein giving maximum percentage of cell adhesion ([5]; coating concentration, results not shown, cell type not specified): 5 µg/mL
decrease of adhesion of CHO-677 cells compared to wild-type CHO-K1 cells ([2]; KAL substrate): about 70%
